The source of these data is patent publication WO2020259667A1 (dated 2020).

As usually defined, the Kd is a measure of binding affinity in units of concentration. Broadly, the koff is the first-order rate constant of dissociation. A high value points to fast dissociation. In general, kon refers to the second-order rate constant of association. The term IC50 denotes the point on the concentration scale where inhibition reaches its midpoint. Read a low IC50 as greater potency in that assay.

For test [1], the target named is T1, human OX40-His protein (Sino Biological 10481-H08H) (human, UniProt P43489 29-216).
T1 construct: Bought protein, used as the analyte in Biacore; not shown: His tag
T1 sequence (looked up): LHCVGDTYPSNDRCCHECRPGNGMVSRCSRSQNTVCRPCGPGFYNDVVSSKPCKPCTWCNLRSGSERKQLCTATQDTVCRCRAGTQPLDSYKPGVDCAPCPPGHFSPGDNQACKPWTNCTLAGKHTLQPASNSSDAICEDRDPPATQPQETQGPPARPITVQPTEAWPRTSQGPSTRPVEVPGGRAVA
The test can be described thus: SPR, Biacore T200; antibody amine-coupled to a CM5 chip, human OX40-His as analyte, 1:1 Langmuir model. For orientation: SPR reads the build-up and loss of mass on a sensor chip optically.

Test [2] concerns the target T2, human OX40 on Jurkat-NF-Kb luc-hOX40 cells (human, UniProt P43489 29-277).
T2 sequence (looked up): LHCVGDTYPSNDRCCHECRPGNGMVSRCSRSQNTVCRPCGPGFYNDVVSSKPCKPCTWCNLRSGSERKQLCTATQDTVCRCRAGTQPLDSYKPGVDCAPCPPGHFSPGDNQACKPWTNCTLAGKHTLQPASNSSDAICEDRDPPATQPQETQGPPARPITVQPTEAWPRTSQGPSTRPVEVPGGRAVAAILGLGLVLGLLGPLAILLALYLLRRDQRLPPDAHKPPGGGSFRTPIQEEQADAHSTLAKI
Put plainly: cell-based or functional assay.

For test [3], the target named is T3, human OX40-Fc, biotin-labelled (OX40 Leu 29-Ala 216, Accession NP_003318, fused with Fc); Acro Biosystems … (human, UniProt P43489 29-216, labelled with biotin (sites not given)).
T3 construct: range 29-216; Bought from Acro Biosystems and expressed in HEK293; also called human Bio-OX40-FC; not shown: Fc tag of the bought protein
T3 sequence (looked up): T1 sequence (looked up)
Put plainly: blocking ELISA: OX40 ligand coated on the plate, serially diluted 2G3 pre-incubated with biotinylated human OX40-Fc, SA-HRP detection; competitor OX40L. (An ELISA detects its analyte on a solid surface through an enzyme-linked reagent.)

Test [4] addresses human OX40 on Jurkat-NF-Kb luc-hOX40 cells (human) (UniProt P43489). Put plainly: cell-based or functional assay.

B1: 2G3 (humanized anti-OX40 antibody, hu2G3 VH1.1 + hu2G3 VL1) (antibody, human IgG1, kappa, V domains shown)
VH: QVQLQESGPGLVKPSETLSLTCTVSGYSISRYSVHWVRQPPGKGLEWIGMIWDGGNTDYNAALKSRFTISRDNAKNTLYLQMNSLRAEDTAVYYCARNPLYFSYAMDYWGQGTLVTVSS
VL: DIQMTQSPSSLSASVGDRVTITCRASQDISNYLNWYQQKPDQSPKLLIIYTSRLQSGVPSRFSGSGSGTDYTLTISSLQPEDFATYYCQQVNTFPFTFGQGTKLEIKR
notes: Format is IgG1/kappa; also called drug A; humanized 2G3 antibody
In test [1], B1 registered a Kd of 4.63 nM, a koff of 0.00202 s⁻¹ and a kon of 437000 M⁻¹ s⁻¹. Besides, the “EC50(nM), luciferase reporter gene (RLU) in Jurkat-NF-Kb luc-hOX40 cells mixed with Raji cells on an anti-CD3 coated plate” value in test [2] was found to be 2.29 nM. Also, the IC50 in test [3] is 1.88 nM.

B2: chimeric antibody Ch2G3 (m2G3 variable regions with human IgG1 and human Kappa constant regions) (antibody, from another filing, V domains shown)
VH: QVQLKESGPGLVASSQSLSITCTVSGFSLSRYSVHWVRQPPGKGLEWLGMIWDGGNTDYNSALKSRLSISKDNSKSQVFLKMNSLQTDDTAMYYCARNPLYFSYAMDYWGQGTSVTVSS
VL: DIQMTQSTSSLSASLGDRVTISCRASQDISNYLNWYQQKPDGTVKLLIIYTSRLQSGVPSRFSGSGSGTDYSLTISNLEQEDIATYFCQQVNTFPFTFGSGTKLEIK
B2 displayed an EC50(nM), luciferase reporter gene (RLU) in Jurkat-NF-Kb luc-hOX40 cells mixed with Raji cells on an anti-CD3 coated plate in test [4] of 0.637 nM.
